Blank lines part the entries; values can stand above or below the binder they belong to.
Tests used:
[1] = target: T1, Recombinant Human DLL4 (R&D Systems Cat#1506-D4/CF) (human, UniProt Q9NR61 27-524); assay: MSD ECL multi-spot plate; Fab 4.375 nM; blank spot 305
T1 construct: also called delta-like protein 4

[2] = target: T2, rHuman HGF R/c-MET/Fc Chimera, CF (R&D Systems Cat#358-MT/CF) (human, UniProt P08581 25-932); assay: as above
T2 construct: also called HGF R/Fc; hepatocyte growth factor receptor; Fc part of the bought chimera not given

[3] = target: T3, rHuman Notch-1/Fc Chimera, CF (R&D Systems Cat#3647-TK) (human, UniProt P46531 19-526); assay: as above
T3 construct: Fc part of the bought chimera not given

[4] = target: T4, rHuman ErbB2/Fc Chimera, CF (R&D Systems Cat#1129-ER) (human, UniProt P04626 23-652); assay: as above
T4 construct: also called HER2/neu; human epidermal growth factor 2 receptor; Fc part of the bought chimera not given

[5] = target: T5, rHuman CD44/Fc Chimera, CF (R&D Systems Cat#3660-CD) (human, UniProt P16070 21-220); assay: as above
T5 construct: Fc part of the bought chimera not given

[6] = target: T6, rHuman IGF-1 sR, (IGF-1 sR), CF (R&D Systems Cat#391-GR) (human, UniProt P08069 31-932); assay: as above
T6 construct: also called insulin-like growth factor-1 soluble receptor; IGF-R1

[7] = target: T1, Recombinant Human DLL4 (R&D Systems …); assay: MSD ECL multi-spot plate; Fab 17.5 nM; blank spot 304
[8] = target: T2, rHuman HGF R/c-MET/Fc Chimera, CF (R&D …); assay: as above
[9] = target: T3, rHuman Notch-1/Fc Chimera, CF (R&D …); assay: as above
[10] = target: T6, rHuman IGF-1 sR, (IGF-1 sR), CF (R&D …); assay: as above
[11] = target: T1, Recombinant Human DLL4 (R&D Systems …); assay: MSD ECL multi-spot plate; Fab 70 nM; blank spot 635
[12] = target: T2, rHuman HGF R/c-MET/Fc Chimera, CF (R&D …); assay: as above
[13] = target: T3, rHuman Notch-1/Fc Chimera, CF (R&D …); assay: as above
[14] = target: T4, rHuman ErbB2/Fc Chimera, CF (R&D …); assay: as above
[15] = target: T5, rHuman CD44/Fc Chimera, CF (R&D Systems …); assay: as above
[16] = target: T6, rHuman IGF-1 sR, (IGF-1 sR), CF (R&D …); assay: as above
[17] = target: T1, Recombinant Human DLL4 (R&D Systems …); assay: MSD ECL multi-spot plate; Fab 280 nM; blank spot 1691
[18] = target: T2, rHuman HGF R/c-MET/Fc Chimera, CF (R&D …); assay: as above
[19] = target: T3, rHuman Notch-1/Fc Chimera, CF (R&D …); assay: as above
[20] = target: T4, rHuman ErbB2/Fc Chimera, CF (R&D …); assay: as above
[21] = target: T5, rHuman CD44/Fc Chimera, CF (R&D Systems …); assay: as above
[22] = target: T6, rHuman IGF-1 sR, (IGF-1 sR), CF (R&D …); assay: as above
[23] = target: T7, rHuman ErbB2/Fc Chimera, CF (R&D Systems Cat#1129-ER) (human, UniProt P04626 23-652); assay: MSD ECL multi-spot, Fab 2.38 uM, blank 526
T7 construct: Bought Fc chimera; also called HER2/neu; Fc part of the bought chimera not given

[24] = target: T8, rHuman CD44/Fc Chimera, CF (R&D Systems Cat#3660-CD) (human, UniProt P16070 21-220); assay: MSD ECL multi-spot, Fab 2.38 uM, blank 526
T8 construct: Bought Fc chimera; Fc part of the bought chimera not given

[25] = target: T9, rHuman IGF-1 sR (insulin-like growth factor-1 soluble receptor), CF (R&D Systems Cat#391-GR) (human, UniProt P08069 31-932); assay: MSD ECL multi-spot, Fab 2.38 uM, blank 526
T9 construct: Bought soluble receptor; also called IGF-R1

[26] = target: T10, rHuman Erythropoietin R/Fc Chimera, CF (R&D Systems Cat#963-ER) (human, UniProt P19235 25-250); assay: MSD ECL multi-spot, Fab 2.38 uM, blank 526
T10 construct: Bought Fc chimera; also called EPO R/Fc; EPOR; Fc part of the bought chimera not given
T10 sequence: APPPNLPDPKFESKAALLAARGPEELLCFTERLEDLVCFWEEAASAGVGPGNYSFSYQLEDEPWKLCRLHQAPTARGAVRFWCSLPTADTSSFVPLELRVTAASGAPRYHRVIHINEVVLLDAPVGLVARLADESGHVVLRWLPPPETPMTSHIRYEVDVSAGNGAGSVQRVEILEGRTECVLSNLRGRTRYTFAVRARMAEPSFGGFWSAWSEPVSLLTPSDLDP

[27] = target: T11, rHuman EGF R/Fc Chimera, CF (R&D Systems Cat#344-ER) (human, UniProt P00533 25-645); assay: MSD ECL multi-spot, Fab 2.38 uM, blank 526
T11 construct: Bought Fc chimera; Fc part of the bought chimera not given

[28] = target: T12, Recombinant Human DLL4 (R&D Systems Cat#1506-D4/CF) (human, UniProt Q9NR61 27-524); assay: MSD ECL multi-spot, Fab 2.38 uM, blank 526
T12 construct: Bought recombinant protein; also called rHuman DLL4; delta-like protein 4

[29] = target: T13, rHuman Notch-1/Fc Chimera, CF (R&D Systems Cat#3647-TK) (human, UniProt P46531 19-526); assay: MSD ECL multi-spot, Fab 2.38 uM, blank 526
T13 construct: Bought Fc chimera; Fc part of the bought chimera not given
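Further: blank spot per well as comparator with Hit at signal to blank ratio of 4 or more.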

ECL signal [1]: 558 ECL signal | ECL signal [2]: 193 ECL signal | ECL signal [3]: 480 ECL signal | ECL signal [4]: 384 ECL signal | ECL signal [5]: 424 ECL signal | ECL signal [6]: 369 ECL signal | ECL signal [7]: 1220 ECL signal | ECL signal [8]: 565 ECL signal | ECL signal [9]: 680 ECL signal | ECL signal [10]: 626 ECL signal | ECL signal [11]: 2750 ECL signal | ECL signal [12]: 1290 ECL signal | ECL signal [13]: 1490 ECL signal | ECL signal [14]: 1360 ECL signal | ECL signal [15]: 1370 ECL signal | ECL signal [16]: 1320 ECL signal | ECL signal [17]: 8110 ECL signal | ECL signal [18]: 3560 ECL signal | ECL signal [19]: 4380 ECL signal | ECL signal [20]: 3950 ECL signal | ECL signal [21]: 4070 ECL signal | ECL signal [22]: 3530 ECL signal
B1: Fab VH1-46_IGHD2-15*01_IGHJ2*01 & L12_IGKJ1*01 (Fab, V domains shown)
VH: QVQLVQSGAEVKKPGASVKVSCKASGYTFTSYYMHWVRQAPGQGLEWMGIINPSGGSTSYAQKFQGRVTMTRDTSTSTVYMELSSLRSEDTAVYYCAREGYCSGGSCYSYWYFDLWGRGTLVTVSS
VL: not shown

ECL signal [23]: 594 | ECL signal [24]: 666 | ECL signal [25]: 691 | ECL signal [26]: 834 | ECL signal [27]: 681 | ECL signal [28]: 12200 | ECL signal [29]: 636
B2: Fab VH5-51_IGHD5-18*01>3_IGHJ4*01 & V3-4_IGLJ1*01 (Fab, V domains shown)
VH: EVQLVQSGAEVKKPGESLKISCKGSGYSFTSYWIGWVRQMPGKGLEWMGIIYPGDSDTRYSPSFQGQVTISADKSISTAYLQWSSLKASDTAMYYCARRGYSYGYDYFDYWGQGTLVTVSS
VL: QTVVTQEPSFSVSPGGTVTLTCGLSSGSVSTSYYPSWYQQTPGQAPRTLIYSTNTRSSGVPDRFSGSILGNKAALTITGAQADDESDYYCVLYMGSGISYVFGTGTKVTVL
notes: Expressed in E. coli as Fab: heavy chain with CH1 plus Flag and His tags from Plasmid A, lambda light chain constant region from Plasmid E; also called Fab No. 2
